{"source": "patent US20060287243A1", "about": "“Stable pharmaceutical compositions including motilin-like peptides” (priority 2005, published 2006)", "type_in_all_cases": "physicochemical", "key": {"[1]": {"assay": "Stability of motilin-like peptide following autoclaving and storage (HPLC, undegraded peptide remaining)", "conditions": "30 μg/ml in 10 mM sodium acetate buffer pH 5.0, Type I glass vials, autoclaved 121° C. 15 minutes, storage 3 months at 55° C. (FIG. 2)", "excerpt": "A further advantage of the pharmaceutical composition of the present invention is its peptide stability when the composition is subjected to elevated temperatures such as the temperature of steam sterilization. Many peptides are inherently unstable and, when subjected to heat, are known to degrade very rapidly, typically in a few minutes or less. In contrast, in compositions of the present invention, the peptide substantially retains its stability (i.e., remains substantially undegraded and retains a substantial percentage of its initial potency), even after the composition is (1) subjected to steam sterilization (for at least 10 minutes and up to 60 minutes at temperatures of approximately 100° C.-128° C. and typically 121° C.), and (2) subsequently stored in a suitable container (described below) at lower temperatures typically encountered by a pharmaceutical composition, such as about 4° C.-5° C. to about 25° C.\nThe motilin-like peptide of SEQ ID NO.: 1 was dissolved at a concentration of 30 μg/ml in 10 mM sodium acetate buffer, pH 5.0. […] The potency of the peptide following storage at each temperature was measured over time by testing samples after incubation of one week, two weeks, three weeks, one month and three months. Potency was determined by using HPLC to measure the amount of undegraded peptide remaining in each sample. […]"}, "[2]": {"assay": "Stability of lyophilized formulations of motilin-like peptide, reconstituted in water (HPLC)", "conditions": "30 μg/ml in 10 mM citrate buffer, 1% w/v sucrose, pH 6.0, lyophilized, stored in 20 ml vial at 40° C. for several months (FIG. 5)", "experimental": "The motilin-like peptide including SEQ ID NO.: 1 was dissolved at a concentration of 30 μg/ml in 10 mM citrate buffer and 1% w/v of sucrose (bulking agent) at pH 6.0. The composition was lyophilized by standard techniques and stored in a 20 ml vial at 40° C. The potency of the motilin-like peptide was measured at the time intervals indicated in FIG. 5, by reconstituting the composition in water. Potency was determined by using HPLC to measure the amount of undegraded peptide remaining in each sample. […] (Again, it will be appreciated by those skilled in the art that the stability of pharmaceutical compositions at elevated temperatures, such as 40° C. as in FIG. 5, may serve as the basis of prediction of stability for longer periods at more typical storage temperatures, such as approximately 20° C.-25° C. or 4° C.-8° C., for example)."}, "[3]": {"assay": "Long-term storage stability of the aqueous buffered composition", "conditions": "pH between approximately 3 and 9, preferably 4.8-5.2", "experimental": "The aqueous pharmaceutical compositions of the present invention provides benefits previously unknown. The motilin-like peptide of pharmaceutical compositions of the present invention remains stable when stored over a wide range of temperatures for extended periods of time. For example, when stored at room temperature or its preferred lower storage temperature of 4° C.-5° C., substantial stability is maintained for significant periods of time. For example, at a storage temperature of approximately 25° C., the peptide contained in the composition of the present invention remains stable for at least 12 months, and more preferably at least approximately 18 months and, even more preferably, up to and even beyond approximately 24 months, retaining a potency of 90% or more as shown, for example, in FIG. 1. At a storage temperature of 5° C., storage with only marginal degradation (and a potency of at least 90-95%) of up to at least 18 months is regularly observed.\nWhether prepared and stored as an aqueous unbuffered solution, an aqueous buffered solution, a ready-to-use or concentrated, or a lyophilized composition that is subsequently reconstituted, the pharmaceutical compositions of the present invention remains potent during storage for extended periods of time. […]"}, "[4]": {"assay": "Storage stability of aqueous buffered composition in Schott Type 1 vials", "excerpt": "Some plastics have also proven to be effective in assisting in the stabilization of the peptide composition. In this regard, preferred plastics are cyclic olefin copolymers, available, for example, from West Pharmaceuticals under the product name CZ resin vials, or from Schott under the product name TopPac vials, or from Alcan packaging under the product name Ticona Topas serum vials. The compositions of the present invention may also be stored in PVC, as well as non-PVC flexible bags. When stored in the above described glass or plastic containers, the above-described storage times at the above-described storage temperatures can be achieved, although for storage periods of at least 18 months, Type I Plus (vapor treated silicon) vials and Type I Plus glass ampules are preferred. […] It will be appreciated by those skilled in the art that the measured stability of pharmaceutical compositions at elevated temperatures, such as 40° C. or higher, may serve as the basis of prediction of stability for longer periods at more typical storage temperatures, such as 20°-25° C. or 4°-8° C., for example. Such “accelerated storage” studies are common in the field of the present invention."}}, "note": "Square brackets hold non-standard residues; d marks the D form.", "data": [{"substance": "(Me3N)^+Phe-Val-Pro-Ile-Phe-Thr-Tyr-Gly-Glu-Leu-Gln-D-Arg-Leu-Lys-NH2 ({N,N,N‑trimethyl}-FVPIFTYGELQ[dR]LK-NH2) [SEQ ID NO.: 1, synthetic motilin-like peptide receptor agonist]", "values": [{"measurement": "potency retained (undegraded peptide remaining by HPLC)", "setting": "[1]", "result": "greater than 90%"}, {"measurement": "potency retained (undegraded peptide remaining by HPLC)", "setting": "[2]", "result": "greater than 90%"}, {"measurement": "degradation during storage", "setting": "[3]", "result": "only minimal degradation"}, {"measurement": "stability (maintenance of potency)", "setting": "[4]; 30 μg/ml, several months at 5° C. to 55° C. (FIG. 4)", "result": "demonstrated stability"}, {"measurement": "stability (maintenance of potency)", "setting": "[4]; approximately 5 μg/ml, several months at 5° C. to 55° C. (FIG. 3)", "result": "demonstrated stability"}]}]}
